Laboratory results reported in the supplement of paper PMC10567573.

B1: ZNF649 (parent)
chain: YQAGKPDALTKLEQGEPLWTLEDE
B2: LARP4 (parent)
chain: WTVANMEEIKKLTTDPDLILEVLR

Variants of: B1
Assay: protein stability index of a GFP-peptide fusion (GPS, HEK-293T) (PSI 1-6); higher = more stable
Settings: c terminus: a fixed tail appended
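Also: lentivirally expressed fusions sorted by FACS into six bins by GFP to DsRed ratio, PSI derived from sequencing read proportions per bin multiplied by bin number.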

Protein stability index: each site, then its substitutions
P6: I 4.32; E 5.46; G 4.99; W 2.99; Q 4.15
G4: E 4.38; H 4.58; D 5.05; S 4.4; F 4.8; Y 3.59; I 4.22; N 4.92; C 4.47; L 4.17; R 3.53; P 4.63; K 4.18; T 3.97; A 4.68; Q 4.08
E16: W 2.49; H 3.32; F 2; D 4.94; L 3.66; P 3.93; N 3.73; Q 3.76; G 4.06; K 4.49; A 3.93; S 4.38; M 1.92; Y 2.62; T 3.97; V 2.59; I 2.1
K5: L 4.05; C 4.72; T 4.6; Y 2.6; S 4.48; I 4.02; A 4.48; E 4.59; N 4.84; V 3.03; M 4.38; F 2.76; R 3.31; D 4.01; P 5
G15: S 4.21; I 4.15; F 3.74; T 4.15; D 4.6; H 4.31; Q 4.31; C 3.9; P 3.89; E 4.88; N 4.11; K 4.4; V 4.62; L 4.25; Y 3.52; A 3.84; M 3.97; W 3.39; R 2.82
D7: Y 2.06; C 2.37; Q 3.58; R 3.65; A 3.4; K 3.66; T 3.59; L 3.15; E 4.77; P 4.16; I 2.61; V 3.28; H 4.18; N 3.26; F 2.49; S 3.99
E13: F 2.6; R 3.26; H 4.25; Y 3.12; N 4.16; I 3.15; D 4.18; P 4.18; C 3.2; L 3.14; S 4; W 1.98; V 4.21; T 3.86; G 3.31; M 3.45; A 4.2; Q 2.87; K 3.34
Y1: H 5.25; G 4.71; R 5.16; N 5.22; M 4.75; W 4.7; F 3.39; I 5.01; K 5.51; P 4.5; L 4.51; S 5.54; T 5.57; D 5.21; A 4.88; Q 5.46; C 5.06
Q2: S 4.99; E 5.66; Y 3.56; N 4.22; L 3.1; P 4.8; I 3.29; M 4.63; D 5.48; C 3.87; A 3.68; G 4.38; R 5.15; H 3.08; F 4.6; T 5.05; V 2.53; K 4.58

Variants of: B2
Assay: as above
Settings: c terminus: a fixed tail appended

Protein stability index of substitutions, site by site:
L23: V 2.85; W 2.96; R 2.47; S 3.27; T 3.08; Y 3.06
R24: K 1.82; Q 2.38; S 2.27; W 2.31; C 2.3; A 2.12; V 1.83; L 1.12; F 1.74; Y 1.57; T 2.5; N 2.48; M 1.47; G 2.65; I 2.14; H 1.75; P 2.37; E 2.53; D 2
